For this assay, the target named is recombinant His6-tagged Drosophila PP1α87B (pET28a) (Drosophila) (UniProt P12982).
Chain of UniProt P12982 (P12982 whole entry): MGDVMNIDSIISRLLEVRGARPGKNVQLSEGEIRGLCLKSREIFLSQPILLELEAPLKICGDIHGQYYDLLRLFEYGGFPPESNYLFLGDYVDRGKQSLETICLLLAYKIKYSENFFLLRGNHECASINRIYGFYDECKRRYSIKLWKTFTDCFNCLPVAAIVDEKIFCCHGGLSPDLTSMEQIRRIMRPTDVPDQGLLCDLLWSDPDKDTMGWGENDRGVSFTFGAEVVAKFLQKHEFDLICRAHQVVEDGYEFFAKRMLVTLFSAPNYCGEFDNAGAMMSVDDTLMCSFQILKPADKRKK

B1: recombinant His6-tagged Drosophila Uri (pET-28m), bacterially expressed (natural protein)
chain: MDRREDALLQALQTNASETERWEAFKRDNESTIRNLDKFAKNLSVEVMVPIGRKALMPGELIHTNELLVGHYEGYFSACSSHKAKEICQYRLKLAEEQLKKLAVENDLWQKKLHTPFAEGAVPSGDQVEIVEDFNEESHNKWLAEHRKRMRQQKQKERLEREAEPVKKDNEVLRKLEEREMMEELGLDPDNIDEDQLHDMLNQEPLKSTNESSPKSLTQEEEDELWKKLEAEEQNEADELSSEAEESLKTTDNLVRQLMSGETETPSSKKRTAGTNRNVEIQDPISEDDGDDDDEGDQEEEVRTIREQMSLLPNEDREPFLRAQLHVLKAKMRKIQKVNFISDELIHLMNVVVMLEDDLQDLVFEQELEASEEEEEVVENNHLPDEPSKELSTVSESSTNKRRISFALDDEKLEFRREETVAEMLPNAKKNSRDIIKLNAPLKPAGDPQPASIKTKRQTTQDILQKVERNIEFVKENQSVQDFDLLNRIMEESTGLINTLHISFTHSGAIPSPSSDQSDGIPGKPSDFYVRYEKDRARPNDSFPIYVNGFEGEEHVKVPIMSEAARGSAYEDPRSQFSKPNSSEICFTHSGSITPTSNDQSDDIPGNPFDFYEKYEKDRAKFSKSNSSEGDATDPESATKSILRNKSAVDLEPHNVNQQPKKGRKVRNQKKKERTLDDDLRDMSAYQKVMHDLVEKEPTAPEPLPPGKFIDSHAPKKRVSRFKEQRALNKT
In the case of B1, the inhibition of the myelin basic protein phosphatase activity of recombinant PP1α87B by Uri; IC50 of Uri relative to its IC50 against PP1β9C amounted to 25 fold.

The values above are taken from paper PMC2346476.
